Substrate: O=P(O)(O)O[C@H]1[C@H](OP(=O)(O)O)[C@@H](OP(=O)(O)O)[C@H](OP(=O)(O)O)[C@@H](OP(=O)(O)O)[C@H]1OP(=O)(O)O
Assay: purified protein
Settings: 50 mM sodium acetate pH 4.0, 50 °C, ionic strength 50 mM (NaCl), 3 min, sodium phytate 0.006-0.800 mM

B1: Bd1204 (Bdellovibrio bacteriovorus HD100) (protein)
chain: QKSVSLTPDKPVSTKIPFFMTRPQPTTPVELVFDKDHAAPKPMNYRKSDSLRMSGSATFSPKALKEVAKPVKKNKASLYVFDLRQESHGLINDIPVTWYADRDWANADLNHEEAVRRERRLLGDLRVGDKIGTTAIQSIETEESMIRTGGHQYVRLTVTDHVRPVDSEVDRFIESVRALPENAWVHFHCRAGKGRTTTFMVLYDMLKNAKTDSFEEIIKRNTELSNDYDVLTVPADEKDWKYPYQKERAAFVTEFYNYAKAHPNGEGMLWGEWVLR
Km: 574 µM | kcat: 124 s⁻¹
